Measured values from US20220195407, “OPTIMIZATION OF ENGINEERED MEGANUCLEASES FOR RECOGNITION SEQUENCES” (Precision BioSciences, Inc., published 2022).
Residue numbers refer to the chain shown, from its start.

Key:
Experiment in all cases: cell_activity; CHO iGFFP reporter
[1] = biological target: T1, LOX 3-4m.2248 (artificial (I-CreI derived))
T1 chain: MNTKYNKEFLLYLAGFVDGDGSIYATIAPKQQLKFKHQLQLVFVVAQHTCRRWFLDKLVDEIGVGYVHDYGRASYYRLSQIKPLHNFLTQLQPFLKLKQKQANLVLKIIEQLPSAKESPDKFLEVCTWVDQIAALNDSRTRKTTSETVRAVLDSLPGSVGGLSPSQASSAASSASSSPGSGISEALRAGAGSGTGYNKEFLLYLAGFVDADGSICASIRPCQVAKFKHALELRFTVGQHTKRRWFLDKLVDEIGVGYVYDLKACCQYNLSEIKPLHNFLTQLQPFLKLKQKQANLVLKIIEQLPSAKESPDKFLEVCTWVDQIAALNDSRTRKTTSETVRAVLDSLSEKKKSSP
Excerpt: (§1) A CHO cell reporter system (see WO/2012/167192, FIG. 3) was used to determine whether the engineered meganucleases generated in these studies could recognize and cleave the modified LOX 3-4 recognition sequences in Table 87. To perform the assay, a pair of CHO cell reporter lines were produced, which carried a non-functional Green Fluorescent Protein (GFP) gene expression cassette integrated into the genome of the cell. The GFP gene in each cell line was interrupted by a pair of recognition sequences such that intracellular cleavage of either recognition sequence by a meganuclease would stimulate a homologous recombination event resulting in a functional GFP gene. In both cell lines, one of the recognition sequences was derived from the LOX 3-4 recognition sequence (i.e., those sequences disclosed in Table 87), and the second recognition sequence was specifically recognized by a control meganuclease called “CHO 23/24.” CHO reporter cells comprising a recognition sequence derived from the LOX 3-4 recognition sequence and the CHO 23/24 recognition sequence are referred to herein as “test cells.”
(§2) Novel engineered meganucleases derived from the LOX 3-4x.109 meganuclease were prepared by making amino acid substitutions at one or more positions in the first subunit and one or more positions in the second subunit. These engineered meganucleases were then evaluated for cleavage of the LOX 3-4 recognition sequence modified to have an ATAT center sequence (SEQ ID NO: 200) in the CHO reporter assay according to Example 1.

[2] = biological target: T2, LOX 3-4m.2330 (artificial (I-CreI derived))
T2 chain: T1 chain with G19A, H48K, C50K, Q80E, A210G, H239A, K241R, K262R, A263N, E271Q
Excerpt: as §1, §2

[3] = biological target: T3, LOX 3-4m.2329 (artificial (I-CreI derived))
T3 chain: T1 chain with G19A, H48T, C50R, A210G, H239T, K241N, K262G, A263G, E271Q
Excerpt: as §1, §2

[4] = biological target: T4, LOX 3-4m.2313 (artificial (I-CreI derived))
T4 chain: T1 chain with G19A, H48A, C50K, A210G, H239A, K262G, A263K, C265A, E271Q, R330P
Excerpt: as §1, §2

[5] = biological target: T5, LOX 3-4m.1789 (artificial (I-CreI derived))
T5 chain: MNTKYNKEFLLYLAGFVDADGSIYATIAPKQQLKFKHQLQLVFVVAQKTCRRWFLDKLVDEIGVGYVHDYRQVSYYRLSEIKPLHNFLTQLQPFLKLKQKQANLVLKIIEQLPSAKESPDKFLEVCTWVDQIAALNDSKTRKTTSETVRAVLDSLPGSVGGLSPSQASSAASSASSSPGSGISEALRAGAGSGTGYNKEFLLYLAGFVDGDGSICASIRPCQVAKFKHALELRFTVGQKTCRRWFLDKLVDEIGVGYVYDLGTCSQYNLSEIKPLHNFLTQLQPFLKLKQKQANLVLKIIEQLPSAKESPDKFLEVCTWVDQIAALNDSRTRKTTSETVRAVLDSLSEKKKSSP
Excerpt: as §1
as §2, with “a GCAA” for “an ATAT”, “267)” for “200)”

[6] = biological target: T6, LOX 3-4m.1875 (artificial (I-CreI derived))
T6 chain: T5 chain with A19G, C50R, Q72G, E80Q, G210A, G262H, T263K, C264I, S265A
Excerpt: as §1
as §2, with “a GCAA” for “an ATAT”, “267)” for “200)”

[7] = biological target: T7, LOX 3-4m.1854 (artificial (I-CreI derived))
T7 chain: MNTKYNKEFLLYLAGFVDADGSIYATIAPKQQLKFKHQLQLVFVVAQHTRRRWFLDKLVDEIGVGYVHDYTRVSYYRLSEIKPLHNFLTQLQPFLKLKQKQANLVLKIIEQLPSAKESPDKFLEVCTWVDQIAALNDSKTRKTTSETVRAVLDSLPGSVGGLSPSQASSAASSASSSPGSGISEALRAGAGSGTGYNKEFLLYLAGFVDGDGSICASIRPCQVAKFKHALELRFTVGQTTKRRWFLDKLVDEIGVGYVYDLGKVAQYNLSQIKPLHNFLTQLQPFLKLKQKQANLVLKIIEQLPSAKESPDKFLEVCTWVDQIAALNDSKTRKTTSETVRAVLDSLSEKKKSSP
Excerpt: as §1
as §2, with “a GCAA” for “an ATAT”, “267)” for “200)”

[8] = biological target: T8, LOX 3-4m.1868 (artificial (I-CreI derived))
T8 chain: T5 chain with C50R, R71G, Q72P, V73T, E80Q, T263R, C264I, S265A
Excerpt: as §1
as §2, with “a GCAA” for “an ATAT”, “267)” for “200)”

[9] = biological target: T9, LOX 3-4m.1506 (artificial (I-CreI derived))
T9 chain: T5 chain with C50T, R71G, Q72K, V73A, K139R, S180P, C241I, V250A, T263R, C264I
Excerpt: as §1
as §2, with “ATGA” for “ATAT”, “220)” for “200)”

[10] = biological target: T10, LOX 3-4m.1421 (artificial (I-CreI derived))
T10 chain: T7 chain with H48K, R50T, T71G, V73A, E80Q, T239R, K241I, V250A, K263H, V264I
Excerpt: as §1
as §2, with “ATGA” for “ATAT”, “220)” for “200)”

[11] = biological target: T11, LOX 3-4m.1500 (artificial (I-CreI derived))
T11 chain: T7 chain with H48K, T71G, R72S, V73S, E80Q, K139R, T239S, K241R, K263H, A265S
Excerpt: as §1
as §2, with “ATGA” for “ATAT”, “220)” for “200)”

[12] = biological target: T12, LOX 3-4m.1486 (artificial (I-CreI derived))
T12 chain: T5 chain with C50T, R71G, Q72T, V73A, K139R, C241S, T263R, C264I
Excerpt: as §1
as §2, with “ATGA” for “ATAT”, “220)” for “200)”

B1: LOX 3-4 ATAT (dsDNA)
DNA 1: GTATAGCATATATTATACGAAG
DNA 2: CTTCGTATAATATATGCTATAC
activity [1]: 13.8 % GFP | activity [2]: 13.9 % GFP | activity [3]: 14.9 % GFP | activity [4]: 13.1 % GFP

B2: LOX 3-4 GCAA (dsDNA)
DNA 1: GTATAGCATGCAATATACGAAG
DNA 2: CTTCGTATATTGCATGCTATAC
activity [5]: 8.9 % GFP | activity [6]: 8.14 % GFP | activity [7]: 7.67 % GFP | activity [8]: 7.56 % GFP

B3: LOX 3-4 ATGA (dsDNA)
DNA 1: GTATAGCATATGATATACGAAG
DNA 2: CTTCGTATATCATATGCTATAC
activity [9]: 8.2 % GFP | activity [10]: 8.37 % GFP | activity [11]: 3.6 % GFP | activity [12]: 9.23 % GFP
